Reference: paper PMC6987120, “Structural insights into ATP hydrolysis by the MoxR ATPase RavA and the LdcI-RavA cage-like complex” (Communications Biology, 2020)
Several values for one entry are separate records, joined by “and”; a condition that tells them apart may be missing. Equal entries are not always repeated.

B4: acid stress-inducible lysine decarboxylase LdcI (enzyme, E. coli)
chain: MNVIAILNHMGVYFKEEPIRELHRALERLNFQIVYPNDRDDLLKLIENNARLCGVIFDWDKYNLELCEEISKMNENLPLYAFANTYSTLDVSLNDLRLQISFFEYALGAAEDIANKIKQTTDEYINTILPPLTKALFKYVREGKYTFCTPGHMGGTAFQKSPVGSLFYDFFGPNTMKSDISISVSELGSLLDHSGPHKEAEQYIARVFNADRSYMVTNGTSTANKIVGMYSAPAGSTILIDRNCHKSLTHLMMMSDVTPIYFRPTRNAYGILGGIPQSEFQHATIAKRVKETPNATWPVHAVITNSTYDGLLYNTDFIKKTLDVKSIHFDSAWVPYTNFSPIYEGKCGMSGGRVEGKVIYETQSTHKLLAAFSQASMIHVKGDVNEETFNEAYMMHTTTSPHYGIVASTETAAAMMKGNAGKRLINGSIERAIKFRKEIKRLRTESDGWFFDVWQPDHIDTTECWPLRSDSTWHGFKNIDNEHMYLDPIKVTLLTPGMEKDGTMSDFGIPASIVAKYLDEHGIVVEKTGPYNLLFLFSIGIDKTKALSLLRALTDFKRAFDLNLRVKNMLPSLYREDPEFYENMRIQELAQNIHKLIVHHNLPDLMYRAFEVLPTMVMTPYAAFQKELHGMTEEVYLDEMVGRINANMILPYPPGVPLVMPGEMITEESRPVLEFLQMLCEIGAHYPGFETDIHGAYRQADGRYTVKVLKEESKK
notes: LdcI, inducible lysine decarboxylase of E. coli; Decamer in the cryo-EM maps of the cage; Buffers held 0.1 mM PLP; source: ppGpp-/- E. coli strain (MG1655 ΔrelA ΔspoT), purified as previously described; copies: 10

Key:
[1] = target: T1, LdcI (acid stress-inducible lysine decarboxylase) (E. coli, UniProt P0A9H3 1-715); experiment: BLI; biotinylated RavA-AviTag incubated with 1 mM ADP for 10 min, on streptavidin biosensors, quenched with biocytin; LdcI 500-31.25 nM in solution; pH 8.0 (1x TBS: 25 mM Tris, 300 mM NaCl, 10 mM MgCl2, 10% glycerol, with 1x kinetics buffer, 1 mM ADP, 1 mM DTT, 0.1 mM PLP); 293 K, Octet RED96; 1:1 interaction model; conditions: both partners purified
T1 construct: Inducible lysine decarboxylase LdcI of E. coli; 0.1 mM PLP in the BLI buffer; also called lysine decarboxylase LdcI; source: E. coli ppGpp-/- strain MG1655 ΔrelA ΔspoT, purified as previously described
T1 sequence: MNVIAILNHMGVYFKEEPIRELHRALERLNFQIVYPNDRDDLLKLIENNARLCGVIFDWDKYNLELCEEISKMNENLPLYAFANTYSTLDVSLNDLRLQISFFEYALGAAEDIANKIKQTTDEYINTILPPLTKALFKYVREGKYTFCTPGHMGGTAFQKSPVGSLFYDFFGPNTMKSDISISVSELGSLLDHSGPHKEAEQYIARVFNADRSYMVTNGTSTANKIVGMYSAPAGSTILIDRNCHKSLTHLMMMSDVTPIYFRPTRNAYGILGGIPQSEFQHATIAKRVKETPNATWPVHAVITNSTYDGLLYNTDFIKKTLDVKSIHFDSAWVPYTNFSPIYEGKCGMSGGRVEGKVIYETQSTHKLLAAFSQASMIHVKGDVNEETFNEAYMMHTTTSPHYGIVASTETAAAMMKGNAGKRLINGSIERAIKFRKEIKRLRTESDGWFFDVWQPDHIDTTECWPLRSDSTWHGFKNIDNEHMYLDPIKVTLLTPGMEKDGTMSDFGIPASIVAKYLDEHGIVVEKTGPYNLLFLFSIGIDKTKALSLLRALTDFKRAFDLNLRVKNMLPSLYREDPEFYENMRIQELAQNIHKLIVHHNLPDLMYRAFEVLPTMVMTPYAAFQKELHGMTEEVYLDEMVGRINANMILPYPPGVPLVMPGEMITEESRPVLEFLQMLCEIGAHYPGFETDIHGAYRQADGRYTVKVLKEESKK

[2] = target: T1, LdcI (acid stress-inducible lysine …); experiment: BLI; biotinylated RavA-AviTag on streptavidin biosensors WITHOUT prior incubation with ADP, quenched with biocytin; LdcI 500-31.25 nM in solution; pH 7.0 (1x HBS: 25 mM HEPES, 300 mM NaCl, 10 mM MgCl2, 10% glycerol, with 1x kinetics buffer, 1 mM DTT, 0.1 mM PLP); 293 K, Octet RED96; 1:1 interaction model; conditions: both partners purified
[3] = target: T1, LdcI (acid stress-inducible lysine …); experiment: BLI; biotinylated RavA-AviTag incubated with 1 mM ADP for 10 min, on streptavidin biosensors, quenched with biocytin; LdcI 500-31.25 nM in solution; pH 6.5 (1x MES: 25 mM MES, 300 mM NaCl, 10 mM MgCl2, 10% glycerol, with 1x kinetics buffer, 1 mM ADP, 1 mM DTT, 0.1 mM PLP); 293 K, Octet RED96; 1:1 interaction model; conditions: both partners purified
[4] = target: T1, LdcI (acid stress-inducible lysine …); experiment: BLI; biotinylated RavA-AviTag incubated with 1 mM ADP for 10 min, on streptavidin biosensors, quenched with biocytin; LdcI 500-31.25 nM in solution; pH 5.0 (1x MES pH 5, with 1x kinetics buffer, 1 mM ADP, 1 mM DTT, 0.1 mM PLP); 293 K, Octet RED96; 1:1 interaction model; conditions: both partners purified
[5] = target: T1, LdcI (acid stress-inducible lysine …); experiment: BLI; biotinylated RavA-AviTag incubated with 1 mM ADP for 10 min, on streptavidin biosensors, quenched with biocytin; LdcI 500-31.25 nM in solution; pH 7.0 (1x HBS: 25 mM HEPES, 300 mM NaCl, 10 mM MgCl2, 10% glycerol, with 1x kinetics buffer, 1 mM ADP, 1 mM DTT, 0.1 mM PLP); 293 K, Octet RED96; 1:1 interaction model; conditions: both partners purified
[6] = target: the molecule itself; experiment: cryo-EM structure; purified LdcI and RavA mixed at about 4.5:2 RavA:LdcI monomers; 20 mM Tris pH 7.9, 300 mM NaCl, 2 mM ADP, 10 mM MgCl2, 0.1 mM PLP, 1 mM DTT; room temperature; maps of Class 1 and Class 2 without symmetry imposed
[7] = target: B4; experiment: as above; conditions: both partners purified
[8] = target: B4; experiment: BLI; biotinylated RavA-AviTag (pre-incubated with 1 mM ADP) immobilised on streptavidin biosensors; LdcI 500-31.25 nM in solution; Octet RED96, 293 K; pH 8 (Tris), 7 (HEPES), 6.5 and 5 (MES), 300 mM NaCl, 10 mM MgCl2, 10% glycerol, 0.1% BSA, 0.02% Tween-20, 1 mM ADP, 1 mM DTT, 0.1 mM PLP; 1:1 interaction model; averages over the four pH values; conditions: both partners purified

B1: biotinylated RavA-AviTag (enzyme)
chain: not shown
modifications: biotin (biotinylated AviTag)
notes: MoxR AAA+ ATPase RavA of E. coli, cloned in the p11 vector (N-terminal cleavable HIS-tag) with a C-terminal AviTag added; The methods describe biotinylation during expression (D-biotin in the medium), the results say 'in vitro biotinylated'; source: E. coli BL-21 DE3 (100 μM D-biotin in the LB medium, overnight, 20 °C), purified to homogeneity; not shown: AviTag, C-terminal, kept
- Kd [1]: 44.2 nM
- koff [1]: 0.00131 s⁻¹
- kon [1]: 29600 M⁻¹ s⁻¹
- Kd [2]: 46.3 nM
- koff [2]: 0.000987 s⁻¹
- kon [2]: 21300 M⁻¹ s⁻¹
- Kd [3]: 20.9 nM
- koff [3]: 0.000538 s⁻¹
- kon [3]: 25700 M⁻¹ s⁻¹
- Kd [4]: 27.1 nM
- koff [4]: 0.00074 s⁻¹
- kon [4]: 27300 M⁻¹ s⁻¹
- Kd [5]: 26.7 nM
- koff [5]: 0.000659 s⁻¹
- kon [5]: 24700 M⁻¹ s⁻¹

B2: MoxR AAA+ ATPase RavA (enzyme)
chain: not shown
notes: RavA, MoxR family AAA+ ATPase of E. coli, encoded by the ravAviaA operon; cloned in the p11 vector (N-terminal cleavable HIS-tag); Hexamer (spiral or C2-symmetric closed ring) by cryo-EM with ADP; also called free RavA; RavA-ADP
- stoichiometry N [6]: 6
- binding result [7]: binds

B3: biotinylated RavA-AviTag (enzyme)
chain: not shown
modifications: biotin (biotinylated AviTag)
notes: RavA of E. coli cloned in the p11 vector (N-terminal cleavable HIS-tag) with a C-terminal AviTag added; Incubated with 1 mM ADP for 10 min before BLI; also called AviTag-containing RavA; source: E. coli BL-21 DE3 (100 μM D-biotin in the LB medium, overnight, 20 °C), purified to homogeneity; not shown: AviTag, C-terminal, kept
- Kd [8]: 20 nM to 40 nM (2×) and 29.7 nM
- koff [8]: 0.000811 s⁻¹
- kon [8]: 26800 M⁻¹ s⁻¹

Binder: B4
- stoichiometry N [6]: 10
